Test results as given in IntAct's records for PubMed 31515488.

B1: Peroxisomal membrane protein 11C (Homo sapiens), Q96HA9 (parent)
chain: MASLSGLASALESYRGRDRLIRVLGYCCQLVGGVLVEQCPARSEVGTRLLVVSTQLSHCRTILRLFDDLAMFVYTKQYGLGAQEEDAFVRCVSVLGNLADQLYYPCEHVAWAADARVLHVDSSRWWTLSTTLWALSLLLGVARSLWMLLKLRQRLRSPTAPFTSPLPRGKRRAMEAQMQSEALSLLSNLADLANAVHWLPRGVLWAGRFPPWLVGLMGTISSILSMYQAARAGGQAEATTP
partner: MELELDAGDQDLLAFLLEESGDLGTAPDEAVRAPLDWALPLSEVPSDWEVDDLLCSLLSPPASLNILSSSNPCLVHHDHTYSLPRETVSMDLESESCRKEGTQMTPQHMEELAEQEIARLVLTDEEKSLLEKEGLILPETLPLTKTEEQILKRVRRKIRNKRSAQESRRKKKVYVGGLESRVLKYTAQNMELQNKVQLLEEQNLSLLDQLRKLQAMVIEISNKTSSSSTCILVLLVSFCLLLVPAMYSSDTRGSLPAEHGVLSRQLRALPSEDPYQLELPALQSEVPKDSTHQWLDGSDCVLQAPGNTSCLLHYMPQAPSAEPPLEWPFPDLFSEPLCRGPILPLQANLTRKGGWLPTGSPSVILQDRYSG
B2: "N-acyl-aromatic-L-amino acid amidohydrolase (carboxylate-forming)" (Homo sapiens), Q96HD9 (parent)
chain: MCSLPVPREPLRRVAVTGGTHGNEMSGVYLARHWLHAPAELQRASFSAVPVLANPAATSGCRRYVDHDLNRTFTSSFLNSRPTPDDPYEVTRARELNQLLGPKASGQAFDFVLDLHNTTANMGTCLIAKSSHEVFAMHLCRHLQLQYPELSCQVFLYQRSGEESYNLDSVAKNGLGLELGPQPQGVLRADIFSRMRTLVATVLDFIELFNQGTAFPAFEMEAYRPVGVVDFPRTEAGHLAGTVHPQLQDRDFQPLQPGAPIFQMFSGEDLLYEGESTVYPVFINEAAYYEKGVAFVQTEKFTFTVPAMPALTPAPSPAS
B3: cGMP-dependent protein kinase 1 (Homo sapiens), Q13976 (parent)
chain: MSELEEDFAKILMLKEERIKELEKRLSEKEEEIQELKRKLHKCQSVLPVPSTHIGPRTTRAQGISAEPQTYRSFHDLRQAFRKFTKSERSKDLIKEAILDNDFMKNLELSQIQEIVDCMYPVEYGKDSCIIKEGDVGSLVYVMEDGKVEVTKEGVKLCTMGPGKVFGELAILYNCTRTATVKTLVNVKLWAIDRQCFQTIMMRTGLIKHTEYMEFLKSVPTFQSLPEEILSKLADVLEETHYENGEYIIRQGARGDTFFIISKGTVNVTREDSPSEDPVFLRTLGKGDWFGEKALQGEDVRTANVIAAEAVTCLVIDRDSFKHLIGGLDDVSNKAYEDAEAKAKYEAEAAFFANLKLSDFNIIDTLGVGGFGRVELVQLKSEESKTFAMKILKKRHIVDTRQQEHIRSEKQIMQGAHSDFIVRLYRTFKDSKYLYMLMEACLGGELWTILRDRGSFEDSTTRFYTACVVEAFAYLHSKGIIYRDLKPENLILDHRGYAKLVDFGFAKKIGFGKKTWTFCGTPEYVAPEIILNKGHDISADYWSLGILMYELLTGSPPFSGPDPMKTYNIILRGIDMIEFPKKIAKNAANLIKKLCRDNPSERLGNLKNGVKDIQKHKWFEGFNWEGLRKGTLTPPIIPSVASPTDTSNFDSFPEDNDEPPPDDNSGWDIDF
B4: LHFPL tetraspan subfamily member 5 protein (Homo sapiens), Q8TAF8 (parent)
chain: MVKLLPAQEAAKIYHTNYVRNSRAVGVMWGTLTICFSVLVMALFIQPYWIGDSVNTPQAGYFGLFSYCVGNVLSSELICKGGPLDFSSIPSRAFKTAMFFVALGMFLIIGSIICFSLFFICNTATVYKICAWMQLAAATGLMIGCLVYPDGWDSSEVRRMCGEQTGKYTLGHCTIRWAFMLAILSIGDALILSFLAFVLGYRQDKLLPDDYKADGTEEV
partner: B1 partner
B5: Protein BANP (Homo sapiens), Q8N9N5-2 (parent)
chain: MMSEHDLADVVQIAVEDLSPDHPVVLENHVVTDEDEPALKRQRLEINCQDPSIKSFLYSINQTICLRLDSIEAKLQALEATCKSLEEKLDLVTNKQHSPIQVPMVAGSPLGATQTCNKVRCAVPGRRQNTIVVKVPGQEDSHHEDGESGSEASDSVSSCGQAGSQSIGSNVTLITLNSEEDYPNGTWLGDENNPEMRVRCAIIPSDMLHISTNCRTAEKMALTLLDYLFHREVQAVSNLSGQGKHGKKQLDPLTIYGIRCHLFYKFGITESDWYRIKQSIDSKCRTAWRRKQRGQSLAVKSFSRRTPNSSSYCPSEPMMSTPPPASELPQPQPQPQALHYALANAQQVQIHQIGEDGQVQVIPQGHLHIAQVPQGEQVQITQDSEGNLQIHHVGQDGQVLQGAQLIAVASSDPAAAGVDGSPLQGSDIQVQYVQLAPVSDHTAGAQTAEALQPTLQPEMQLEHGAIQIQ
partner: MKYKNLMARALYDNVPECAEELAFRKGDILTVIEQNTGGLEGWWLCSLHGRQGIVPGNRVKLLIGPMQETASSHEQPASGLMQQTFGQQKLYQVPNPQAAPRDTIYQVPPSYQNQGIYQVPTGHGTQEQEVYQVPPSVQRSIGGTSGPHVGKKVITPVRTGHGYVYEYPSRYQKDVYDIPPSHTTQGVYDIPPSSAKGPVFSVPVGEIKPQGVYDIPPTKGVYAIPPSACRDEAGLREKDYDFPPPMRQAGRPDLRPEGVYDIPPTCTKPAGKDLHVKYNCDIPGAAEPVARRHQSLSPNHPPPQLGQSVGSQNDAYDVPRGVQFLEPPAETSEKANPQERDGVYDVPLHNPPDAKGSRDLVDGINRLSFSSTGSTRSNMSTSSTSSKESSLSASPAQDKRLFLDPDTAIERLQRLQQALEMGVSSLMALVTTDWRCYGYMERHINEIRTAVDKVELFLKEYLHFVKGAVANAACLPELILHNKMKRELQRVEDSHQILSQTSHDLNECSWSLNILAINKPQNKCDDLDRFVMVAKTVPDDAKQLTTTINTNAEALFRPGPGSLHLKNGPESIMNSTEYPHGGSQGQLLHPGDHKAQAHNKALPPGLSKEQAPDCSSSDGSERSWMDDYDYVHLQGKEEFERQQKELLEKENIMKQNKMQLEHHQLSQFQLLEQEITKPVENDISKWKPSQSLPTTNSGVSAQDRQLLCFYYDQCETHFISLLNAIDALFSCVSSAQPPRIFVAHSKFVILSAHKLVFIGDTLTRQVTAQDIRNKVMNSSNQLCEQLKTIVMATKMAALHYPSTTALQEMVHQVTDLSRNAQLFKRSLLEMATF
B6: Transcription factor 12 (Homo sapiens), Q99081-3 (parent)
chain: MNPQQQRMAAIGTDKELSDLLDFSAMFSPPVNSGKTRPTTLGSSQFSGSGIDERGGTTSWGTSGQPSPSYDSSRGFTDSPHYSDHLNDSRLGAHEGLSPTPFMNSNLMGKTSERGSFSLYSRDTGLPGCQSSLLRQDLGLGSPAQLSSSGKPGTAYYSFSATSSRRRPLHDSAALDPLQAKKVRKVPPGLPSSVYAPSPNSDDFNRESPSYPSPKPPTSMFASTFFMQDGTHNSSDLWSSSNGMSQPGFGGILGTSTSHMSQSSSYGNLHSHDRLSYPPHSVSPTDINTSLPPMSSFHRGSTSSSPYVAASHTPPINGSDSILGTRGNAAGSSQTGDALGKALASIYSPDHTSSSFPSNPSTPVGSPSPLTGTSQWPRPGGQAPSSPSYENSLHSLKNRVEQQLHEHLQDAMSFLKDVCEQSRMEDRLDRLDDAIHVLRNHAVGPSTSLPAGHSDIHSLLGPSHNAPIGSLNSNYGGSSLVASSRSASMVGTHREDSVSLNGNHSVLSSTVTTSSTDLNHKTQENYRGGLQSQSGTVVTTEIKTENKEKDENLHEPPSSDDMKSDDESSQKDIKVSSRGRTSSTNEDEDLNPEQKIEREKERRMANNARERLRVRDINEAFKELGRMCQLHLKSEKPQTKLLILHQAVAVILSLEQQVRERNLNPKAACLKRREEEKVSAVSAEPPTTLPGTHPGLSETTNPMGHM
partner: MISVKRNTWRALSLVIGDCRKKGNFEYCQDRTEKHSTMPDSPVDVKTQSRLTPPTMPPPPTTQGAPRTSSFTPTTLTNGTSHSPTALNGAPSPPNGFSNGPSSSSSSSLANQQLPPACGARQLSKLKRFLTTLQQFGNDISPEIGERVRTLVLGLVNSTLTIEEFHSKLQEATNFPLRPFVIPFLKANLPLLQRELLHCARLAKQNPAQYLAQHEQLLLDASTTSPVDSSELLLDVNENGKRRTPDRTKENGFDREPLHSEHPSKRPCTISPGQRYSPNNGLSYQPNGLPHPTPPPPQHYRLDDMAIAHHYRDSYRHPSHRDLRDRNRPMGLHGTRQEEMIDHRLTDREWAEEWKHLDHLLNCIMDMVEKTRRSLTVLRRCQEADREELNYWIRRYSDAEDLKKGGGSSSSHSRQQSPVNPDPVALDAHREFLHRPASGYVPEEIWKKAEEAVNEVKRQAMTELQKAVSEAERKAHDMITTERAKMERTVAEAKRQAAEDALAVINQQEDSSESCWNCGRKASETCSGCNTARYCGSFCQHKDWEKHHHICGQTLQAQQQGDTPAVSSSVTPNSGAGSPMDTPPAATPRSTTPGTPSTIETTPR

Variants of: B1
Conditions: with creb3_human CREB3, O43889

Variant | effect of a mutation on the interaction
C91W | with no effect

Variants of: B2
Conditions: with gors2_human GORASP2, Q9H8Y8

Variant | effect of a mutation on the interaction
R8Q | with no effect

Variants of: B3
Conditions: with rbtn2_human LMO2, P25791
rbtn2_human LMO2, P25791, sequence (P25791 whole entry): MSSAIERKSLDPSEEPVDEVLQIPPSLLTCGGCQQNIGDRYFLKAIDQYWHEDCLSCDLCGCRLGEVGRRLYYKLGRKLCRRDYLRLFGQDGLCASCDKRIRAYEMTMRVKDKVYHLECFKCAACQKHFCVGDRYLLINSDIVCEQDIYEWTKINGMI

Variant | effect of a mutation on the interaction
N267S | with no effect

Variants of: B3
Conditions: with zn646_human ZNF646, O15015
zn646_human ZNF646, O15015, sequence (O15015 whole entry): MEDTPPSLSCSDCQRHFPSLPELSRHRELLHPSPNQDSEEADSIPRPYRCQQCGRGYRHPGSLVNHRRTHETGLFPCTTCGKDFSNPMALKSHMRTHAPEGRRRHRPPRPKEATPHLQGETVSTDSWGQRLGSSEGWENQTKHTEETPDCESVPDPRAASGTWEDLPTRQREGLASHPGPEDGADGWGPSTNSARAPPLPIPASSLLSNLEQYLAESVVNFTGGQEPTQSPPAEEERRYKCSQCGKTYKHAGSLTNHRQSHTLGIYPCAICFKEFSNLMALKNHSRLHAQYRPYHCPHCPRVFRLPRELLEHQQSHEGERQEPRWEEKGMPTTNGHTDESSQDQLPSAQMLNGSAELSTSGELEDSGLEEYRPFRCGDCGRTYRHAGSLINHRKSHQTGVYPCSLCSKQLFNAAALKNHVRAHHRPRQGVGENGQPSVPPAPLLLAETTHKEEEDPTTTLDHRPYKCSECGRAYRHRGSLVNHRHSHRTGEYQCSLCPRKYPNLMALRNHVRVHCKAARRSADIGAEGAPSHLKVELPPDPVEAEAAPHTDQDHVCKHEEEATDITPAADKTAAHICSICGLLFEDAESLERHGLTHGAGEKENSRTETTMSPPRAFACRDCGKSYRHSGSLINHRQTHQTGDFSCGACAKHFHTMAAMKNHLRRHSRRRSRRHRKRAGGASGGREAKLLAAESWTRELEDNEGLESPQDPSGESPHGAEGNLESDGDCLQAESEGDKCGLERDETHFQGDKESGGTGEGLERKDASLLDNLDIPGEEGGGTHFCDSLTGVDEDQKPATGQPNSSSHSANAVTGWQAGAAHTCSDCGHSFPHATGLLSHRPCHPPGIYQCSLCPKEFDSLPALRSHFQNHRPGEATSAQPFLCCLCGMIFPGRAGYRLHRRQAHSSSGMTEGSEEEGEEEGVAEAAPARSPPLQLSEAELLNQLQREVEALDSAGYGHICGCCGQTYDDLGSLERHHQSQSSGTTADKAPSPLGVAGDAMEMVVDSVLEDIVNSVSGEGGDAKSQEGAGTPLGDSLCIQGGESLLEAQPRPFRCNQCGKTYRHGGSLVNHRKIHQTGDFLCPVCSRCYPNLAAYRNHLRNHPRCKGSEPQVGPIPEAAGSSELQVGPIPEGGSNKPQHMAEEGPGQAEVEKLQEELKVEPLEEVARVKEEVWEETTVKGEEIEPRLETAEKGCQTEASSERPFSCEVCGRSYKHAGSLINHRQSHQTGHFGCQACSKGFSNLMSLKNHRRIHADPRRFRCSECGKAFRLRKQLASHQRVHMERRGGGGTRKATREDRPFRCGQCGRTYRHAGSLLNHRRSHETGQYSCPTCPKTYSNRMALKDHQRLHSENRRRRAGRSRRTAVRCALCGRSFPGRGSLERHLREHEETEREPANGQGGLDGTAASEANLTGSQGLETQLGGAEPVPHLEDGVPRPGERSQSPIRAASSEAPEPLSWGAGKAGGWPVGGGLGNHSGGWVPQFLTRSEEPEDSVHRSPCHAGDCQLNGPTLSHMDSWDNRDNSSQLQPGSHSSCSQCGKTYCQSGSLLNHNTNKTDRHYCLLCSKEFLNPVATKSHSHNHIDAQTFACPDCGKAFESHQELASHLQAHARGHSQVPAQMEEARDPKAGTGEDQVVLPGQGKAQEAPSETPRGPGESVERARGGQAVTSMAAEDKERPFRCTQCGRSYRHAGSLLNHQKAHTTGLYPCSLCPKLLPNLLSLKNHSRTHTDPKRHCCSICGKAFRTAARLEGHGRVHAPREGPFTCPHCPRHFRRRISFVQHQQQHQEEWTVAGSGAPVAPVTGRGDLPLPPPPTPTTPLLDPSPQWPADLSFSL

Variant | effect of a mutation on the interaction
N267S | with no effect

Variants of: B4
Conditions: with creb3_human CREB3, O43889

Variant | effect of a mutation on the interaction
K205N | with no effect

Variants of: B5
Conditions: with casl_human NEDD9, Q14511

Variant | effect of a mutation on the interaction
A162V | with no effect

Variants of: B6
Conditions: with mtg8_human RUNX1T1, Q06455

Variant | effect of a mutation on the interaction
A155T | with no effect
R74G | with no effect
A482V | with no effect
S446F | with no effect
Y120C | with no effect
